For orientation: Kd means the concentration at which binding is half-saturated. A higher Kd goes with weaker binding. By Km is commonly meant the substrate concentration at which the rate is half of its maximum. What is called stoichiometry N is the number of molecules, sites or subunits per partner or assembly.

From PMC9385563 (Molecules and Cells, 2022) come the findings set out here.

In data set [1] the target is T1, ABCB6-∆TMD0 (Homo sapiens, UniProt Q9NP58, R435A/R439A/R552A).
T1 sequence (Q9NP58 206-842 R435A/R439A/R552A): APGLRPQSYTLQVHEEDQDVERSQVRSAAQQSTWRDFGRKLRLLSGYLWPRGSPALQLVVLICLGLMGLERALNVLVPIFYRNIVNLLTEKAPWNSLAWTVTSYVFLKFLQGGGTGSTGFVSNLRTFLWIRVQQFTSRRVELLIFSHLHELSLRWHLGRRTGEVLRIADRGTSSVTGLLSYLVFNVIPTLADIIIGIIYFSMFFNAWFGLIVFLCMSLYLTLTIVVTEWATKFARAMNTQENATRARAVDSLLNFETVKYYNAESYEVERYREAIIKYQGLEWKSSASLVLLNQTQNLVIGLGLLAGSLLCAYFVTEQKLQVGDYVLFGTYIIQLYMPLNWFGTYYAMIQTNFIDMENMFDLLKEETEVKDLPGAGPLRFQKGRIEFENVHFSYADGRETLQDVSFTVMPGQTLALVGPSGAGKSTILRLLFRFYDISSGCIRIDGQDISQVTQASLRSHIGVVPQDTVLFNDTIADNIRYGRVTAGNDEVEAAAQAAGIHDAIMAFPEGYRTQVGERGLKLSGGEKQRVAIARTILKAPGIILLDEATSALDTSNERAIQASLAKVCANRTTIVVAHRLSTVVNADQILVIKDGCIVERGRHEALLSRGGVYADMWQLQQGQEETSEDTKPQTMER
Briefly: microscale thermophoresis, initial fluorescence change. It counts as binding. For orientation: Microscale thermophoresis detects binding through changes in fluorescence in a small temperature gradient.

For data set [2], the target named is T2, ABCB6-∆TMD0 (Homo sapiens, UniProt Q9NP58, DEL318-324).
T2 sequence (Q9NP58 with tags, fused parts or gaps DEL318-324): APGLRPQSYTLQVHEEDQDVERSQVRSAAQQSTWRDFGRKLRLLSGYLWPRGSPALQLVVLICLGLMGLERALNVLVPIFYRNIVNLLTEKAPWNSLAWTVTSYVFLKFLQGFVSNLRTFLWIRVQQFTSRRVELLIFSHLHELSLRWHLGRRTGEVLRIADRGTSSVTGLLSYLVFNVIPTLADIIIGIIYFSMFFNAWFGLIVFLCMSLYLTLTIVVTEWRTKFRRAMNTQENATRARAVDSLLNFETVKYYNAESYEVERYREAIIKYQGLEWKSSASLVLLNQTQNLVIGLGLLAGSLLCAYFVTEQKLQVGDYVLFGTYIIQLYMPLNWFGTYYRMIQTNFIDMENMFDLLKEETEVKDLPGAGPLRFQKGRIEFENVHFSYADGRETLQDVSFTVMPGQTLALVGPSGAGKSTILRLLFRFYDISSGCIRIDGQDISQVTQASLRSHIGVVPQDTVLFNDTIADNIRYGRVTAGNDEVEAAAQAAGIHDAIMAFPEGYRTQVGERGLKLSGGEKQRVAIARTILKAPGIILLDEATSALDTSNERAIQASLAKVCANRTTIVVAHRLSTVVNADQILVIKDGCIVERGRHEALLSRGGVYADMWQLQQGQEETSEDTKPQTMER
Described as above. The data set is classed as binding.

In data set [3] the target is T3, ABCB6-∆TMD0 (Homo sapiens, UniProt Q9NP58).
T3 sequence (Q9NP58 206-842): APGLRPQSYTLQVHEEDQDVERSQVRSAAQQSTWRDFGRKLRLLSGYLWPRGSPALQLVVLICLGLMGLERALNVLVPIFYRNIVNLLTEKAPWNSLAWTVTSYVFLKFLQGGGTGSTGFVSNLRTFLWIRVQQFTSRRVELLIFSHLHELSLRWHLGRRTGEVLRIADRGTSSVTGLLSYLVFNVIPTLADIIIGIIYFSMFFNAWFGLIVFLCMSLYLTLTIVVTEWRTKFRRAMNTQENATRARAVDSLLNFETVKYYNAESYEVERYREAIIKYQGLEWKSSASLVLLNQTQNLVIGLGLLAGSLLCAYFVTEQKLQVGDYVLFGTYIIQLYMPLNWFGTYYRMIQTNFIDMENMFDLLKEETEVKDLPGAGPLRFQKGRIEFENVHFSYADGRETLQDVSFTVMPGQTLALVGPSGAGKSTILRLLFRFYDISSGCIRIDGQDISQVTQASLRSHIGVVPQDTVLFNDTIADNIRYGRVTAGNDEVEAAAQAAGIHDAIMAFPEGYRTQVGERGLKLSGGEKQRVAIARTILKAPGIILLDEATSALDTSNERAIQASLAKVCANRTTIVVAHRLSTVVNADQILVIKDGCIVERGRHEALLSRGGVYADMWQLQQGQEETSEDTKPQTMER
The data set is described as above. It counts as binding.

Substrate in data set [4]: C=CC1=C(C)C2=Cc3c(C=C)c(C)c4[n]3[Fe]([Cl])[n]3c(c(C)c(CCC(=O)O)c3=CC3=NC(=C4)C(C)=C3CCC(=O)O)=CC1=N2
As to the kind of experiment: purified protein. Conditions: Km from stimulation of ATP hydrolysis, 37°C.

Substrate in data set [5]: CC1=C(CCC(=O)O)c2cc3nc(cc4[nH]c(cc5[nH]c(cc1n2)c(C)c5CCC(=O)O)c(CCC(=O)O)c4C)C(CCC(=O)O)=C3C
As to the kind of experiment: purified protein. Conditions: Km from stimulation of ATP hydrolysis, 37°C, Cymal-6/CHS.

The data set “cryo-EM structure” deals with the molecule itself. As to the kind of experiment: cryo-EM structure.

Regarding `CC1=C(CCC(=O)O)c2cc3nc(cc4[nH]c(cc5[nH]c(cc1n2)c(C)c5CCC(=O)O)c(CCC(=O)O)c4C)C(CCC(=O)O)=C3C` [CPIII], the Kd worked out at 17.8 ± 3 µM on ABCB6-∆TMD0 [1], 14.1 ± 0.9 µM at ABCB6-∆TMD0 [2] and 8.2 ± 0.1 µM on ABCB6-∆TMD0 [3].

B1: ABCB6-∆TMD0 (core region of human ABCB6, residues 206-842) (domain or fragment, UniProt Q9NP58 206-842, looked up)
chain: APGLRPQSYTLQVHEEDQDVERSQVRSAAQQSTWRDFGRKLRLLSGYLWPRGSPALQLVVLICLGLMGLERALNVLVPIFYRNIVNLLTEKAPWNSLAWTVTSYVFLKFLQGGGTGSTGFVSNLRTFLWIRVQQFTSRRVELLIFSHLHELSLRWHLGRRTGEVLRIADRGTSSVTGLLSYLVFNVIPTLADIIIGIIYFSMFFNAWFGLIVFLCMSLYLTLTIVVTEWRTKFRRAMNTQENATRARAVDSLLNFETVKYYNAESYEVERYREAIIKYQGLEWKSSASLVLLNQTQNLVIGLGLLAGSLLCAYFVTEQKLQVGDYVLFGTYIIQLYMPLNWFGTYYRMIQTNFIDMENMFDLLKEETEVKDLPGAGPLRFQKGRIEFENVHFSYADGRETLQDVSFTVMPGQTLALVGPSGAGKSTILRLLFRFYDISSGCIRIDGQDISQVTQASLRSHIGVVPQDTVLFNDTIADNIRYGRVTAGNDEVEAAAQAAGIHDAIMAFPEGYRTQVGERGLKLSGGEKQRVAIARTILKAPGIILLDEATSALDTSNERAIQASLAKVCANRTTIVVAHRLSTVVNADQILVIKDGCIVERGRHEALLSRGGVYADMWQLQQGQEETSEDTKPQTMER
With B1, in “purified protein [4]” (with 1 mM GSH, Cymal-6/CHS), the Michaelis-Menten constant (Km) turned out to be 3 ± 0.3 µM and the kcat turned out to be 36 min^–1. Moreover, in the data set “purified protein [5]”, the Michaelis constant (Km) is given as 19 ± 3.7 µM and the kcat worked out at 25 min^–1. In the data set “cryo-EM structure”, the “stoichiometry N” value was found to be 2.

B2: ABCB6-∆TMD0 (Homo sapiens; Y550A) (protein)
chain: APGLRPQSYTLQVHEEDQDVERSQVRSAAQQSTWRDFGRKLRLLSGYLWPRGSPALQLVVLICLGLMGLERALNVLVPIFYRNIVNLLTEKAPWNSLAWTVTSYVFLKFLQGGGTGSTGFVSNLRTFLWIRVQQFTSRRVELLIFSHLHELSLRWHLGRRTGEVLRIADRGTSSVTGLLSYLVFNVIPTLADIIIGIIYFSMFFNAWFGLIVFLCMSLYLTLTIVVTEWRTKFRRAMNTQENATRARAVDSLLNFETVKYYNAESYEVERYREAIIKYQGLEWKSSASLVLLNQTQNLVIGLGLLAGSLLCAYFVTEQKLQVGDYVLFGTYIIQLYMPLNWFGTAYRMIQTNFIDMENMFDLLKEETEVKDLPGAGPLRFQKGRIEFENVHFSYADGRETLQDVSFTVMPGQTLALVGPSGAGKSTILRLLFRFYDISSGCIRIDGQDISQVTQASLRSHIGVVPQDTVLFNDTIADNIRYGRVTAGNDEVEAAAQAAGIHDAIMAFPEGYRTQVGERGLKLSGGEKQRVAIARTILKAPGIILLDEATSALDTSNERAIQASLAKVCANRTTIVVAHRLSTVVNADQILVIKDGCIVERGRHEALLSRGGVYADMWQLQQGQEETSEDTKPQTMER
For B2, the Km in “purified protein [4]” (with GSH) is reported as 10 µM.
